Measured values reported in PMC11742690.

Target: AMDHD1 (UniProt Q96NU7)
Experiment: co-immunoprecipitation, western blot
Conditions: sites S464,S465,S467

SMAD2 (from UniProt Q15796) SMAD2-A (S464A/S465A/S467A)
binding against the reference (reference: wild-type SMAD2): lost

SMAD3 (from UniProt P84022) SMAD3-A (three C-terminal serines to alanine)
binding against the reference (reference: wild-type SMAD3): lost
